The DeepSol protein solubility set

assay: soluble on expression in E. coli; label from the status in PepcDB or PDB records

Soluble on expression in E. coli, not soluble:
MGSDKIHHHHHHMFNESDAPQPPKVLSTPLEIAANLRQLQESHDPLIITFHDRSHRFQSYVVHVDRESNTLALDEMIPRDGEKFIENGEHFRVEGFHDGVRIAWECDHALKISEVDGHRCYSGPLPQEVTYHQRRNAFRAALKLSQLVDIILDGAHLKGNGAMRGKLLDISATGCKLRFEGNVEDRLQLGQVYERFKAGNPLGLVDTMVELRHLHYEERINTTFAGVRFHNLSGQAQRKIESFVYQLQREARRFDKDDY, MGSDKIHHHHHHMFNLKPELVARLERVLTSVEMLLPRPTAPVDWSVCHAASWRRHSFSGYLEPVRQTDTVTLPELLGIEKQKEVMTNNTLQFLRGLPANNALLWGSRGTGKSSLVKALLNEYAAQGLRIVQVEKEDLIYLSEIFAAVENEPYRFILLCDDLSFEVGELSYKMLKSALDGSVYSAPENVLIYVTSNRRHLIPEYESDNVGWKYVNGELQQSEAMEEKISLSDRFGLWVAFHVFSQDRYLEAVRLCIEREARQRRVEIPWAKEIEREAIQWSHDKSKRCGRTAFQFSRHWVGRYLLGGR, MGSDKIHHHHHHMFTPRGFKFAGVHCKIKRKRKDLGIIFSEVPCVAAGVFTTNVVKAAPVIYDMEILKKNPNGIKAVVVNSGVANACTGEQGMINARRMAEKTAEELGVPVESVLVSSTGVIGVQLPMDKVENGIEEAARVLSNDPLPFAEAIMTTDTKVKMHSTKVMIDGKEITVLGIAKGSGMIHPNMATMLSFITTDAKISEEALKKLLKLSVDDSYNMIDVDGDTSTNDMVIVLANGLAGNTTIQPETDGFWKLYEAVHEVNQVLAEKIVEDGEGATKVMEVHVINAPDIKSARLIARSIVSSNLVKTAIYGEDANWGRVIAAAGYSGATFDPEKLDLFFESEAGRIKVAENGQGVSFDEEEAKKILSEKKIRIILDMKQGKETAKAWGCDLTEKYVEINGRYRT, MGSDKIHHHHHHMFVQARIDTTQDALVWPVVEFQGWVAFFGQRDSFDVYLNGDRVDNVHTVARPDVEEVLGAGWASIGWHVVCDIGQSARDNGHAIIFDVRVRTQTVAQGCFRYKDRLETTTQPLKIILHMPKTGGTSLRLALEEHRKNLFLLPLYHRDFSAIKSLSSLSVDRLDVAYGHVLYGIHEQIARPVTYMTVLRNPYDFVTSLYFFAKYVQRDHSILAAENIVDAVNTVNRPEFDNYYTRTIAGIQPEEPVTEEDLQRAIKNIDTHFSFIGLAERSRQSFRIFSEVFGLPLRYLKENVTPDLVEREFMNFRSVNEEIKKCINLDLILYKYAIKKFWYMDIE, MGSDKIHHHHHHMFVWHEYENAAEAAQSLADAVADALQGALDEKGGAVLAVSGGRSPIAFFNALSQKDLDWKNVGITLADERIVPTNHADSNTGLVREYLLKNKAAAAVWIPMVEDGKTETELHPDAVVDYALKHYKQPDVLILGMGNDGHTASIFPKAPQFQTAIDGSAGVALVHTTPVTAPHERISMTLDAIAHTGHVFLAIQGEEKKAVFDQAAQGENREYPISLVLNHQGVNCHVFYAE, MGSDKIHHHHHHMFWFKNVMIYRLTNALQLASNELEPLLQQHRFIGCSQSEMSKFGWTAPLAKTEQLHFCHTKQFLLISHKEDKLLPANVIKAETEERIALLEEKENRKLKKTEKQAIKDDVIAMLLPRAFSKHQFTAIWLDLDAQLVYVDAASSKRAEASLALLRKTLGSLPVVPLSFVQLPAEVMTNWLAKGHTPNWLTLLEEAELKSFETESVIRCKKQELESDEICYHLQAGKLVTKLAIEWENHFSCVLNNDATLTRLKFAGEIIEKNDDILKEDIAQRLDADFLLMTEELRLFTQKLIEEFGGIKE, MGSDKIHHHHHHMGCKSVYADSCWISSPTLNFGSVNTQQVSSKTDLDVTCNQYNNVKTSFNLCFYIEDNSPLGINPRRLISLSWPFDYLNYDLYYDPSFSRMIDNKAAPNNLLCKSLQIENNGQQTVQIPIYGKVYANQNVKADNYQSYNMTVKLLYKSKTGDVVPSVEETLAQQNMVQNYMKTTTKFENSCAVVGVNTLDFGSIISLNQPIYGQTSIQLKCPTNTALKVGLDTGLYASGTQRRMTNAGQFIQYDLYQDSAYSIAWGTSDNSVLKLDTYQPVFTIPVYGRILPQNQNLKAGEYRDTITIKLTY, MGSDKIHHHHHHMGDKVLKIGSVHQCNCCMGSKTLHPLVSVIDLSKADLSSHTDFKFGFYTILLSECKCEAYRYGHQYYDFSDGTLLCLTPGESISMKDSDNTRPSKGWILAFHPDLICGTALGANIRDYTFFSYRPEEALHVSLREKQVILELLDKINEELQRCIDCYSQKIISKYIELLLDYCERFYERQFITRNEANKKIIERFDRLLDDHFNTIQSQSSDLPTIEECVRVLRLSPAYFNDLLEYETGKSYKEYLQFKRFEIAKEWLINTDKTLSQIAQELGFRNPQYFSRLFKKITGCLPNDFKMPN, MGSDKIHHHHHHMGENMKILISVCGEGFGHTTRCVAIGEALKNDYEISYIAYGKSKNFIEKYGFKVFETFPEIKLKGKDGKFDITSSILNKEYSPKKAIRREINIIREYNPDLIISDCKYSTVVAAKLLKKPVICISNQNYTRYKLKTDLIVYPTMKALNIINERCERFIVPDFPLPYTICEYNLKIIKNMEFIGPLIRYDVDDVDNYGEDYILSVIGGFEYRYKILEELGKIALKNNLNVKLVCGSYEVAKKLMRDLNLNSYKNENVEIIPITTNMKELIKNAELIVSHGGHSTIMEALSFGKPLIVIPDLDHPEQGNNAKKVHDLGCGIALSYKELYRLEEAILDIRNMKMYKRNASKMKELAKKYDGKKNIKKIIDEFFETRKNIRKYYLTDRIANKLINKFKLKIR, MGSDKIHHHHHHMGEVIKNRYEFVVLFDVENGNPNGDPDAGNMPRIDPESGLGIVTDVCLKRKIRNYIETVKEDEDGYKIYIKENVPLNRSDREACKSLGINDDEDKKVTEALKKLKKSDKDADIKLRDYMCRNFYDIRAFGAVMTTFVKASLNCGQVRGPVQLGFARSIDPVISQEVTITRVAITTEKDAENKSNEMGRKSIVPYGLYRVEGYISANLARKVTGFSEEDLELLWDAVINMFENDHSAARGKMAVRELIVFKHSKELGDCPAYKLFDAVKVQKNDDIQYPRKYQDYTVTINDDEIPDTVEVKRMI, MGSDKIHHHHHHMGGLKMKVIILGSGSYSGTPKPLCTCENCTRARINPAFRRTRFSVYIEGGILIDPGPDLHYHLEKLNKEVETILITHAHFDHIFGLPDAQVFKKLTIASNPLGIKVARSLAMLAFNSEAPLGNDWDYVELKFWNEYKVNGVKVIHFPVVHSIEMAGGFLIERKNKTVAITGDTGPEIIRDSEVIDLIKGSDLLISEMTHKESIPKTHLGVNDAIELAKIVKAEQTVFAHISHSNYPQEILEKKVREAKISGIVARDFTIIEI, MGSDKIHHHHHHMGHKVTGSDANVYPPMSTQLEQQGIELIQGFDPAQLGKEGDNQPDLVVIGNAMSRGNPCVEAVLNRGIKYTSGPQFLSEHILQDRWVLAVAGTHGKTSTSSMLAWVLEYCGYEPGFLIGGVPQNFGVSARLGNSVFFVVEADEYDSAFFDKRSKFVHYHPRTLVINNLEFDHADIFADLAAIQRQFNHVIRTVPGEGKVIWPSDVEAVQQVIDMGCWSEQEIYSKATSLTTGLAEHSVNVSANQGEPNAWQPRTIADDGHEFEVLFKGESQGIVNWSLIGQHNIENAIMAIAAARHVGVAPSHAIEALAQFSPPKRRLELLATVNGVSVYDDFAHHPTAIATTLQGLRAKVASSDNANGNIIVVLEPRSNTMKSGVHKDTLANSMVLADVGYLYQADNIDWDIKASMANAPIPVTVFNNIEDIINAVAATANQGDTVVIMSNGGFNGIHQKMIKALA, MGSDKIHHHHHHMGKKHTSSYEVAYYDGDFTGAMKIPALLAVVIKVSEEQTELLGRDAAYVAQFGLGWVITNYEIEIHRLPKVGEKVAITTQAMSYNKYFCYRNFWVHDEEGKECVFVKSTFVLMDQKNRKISSVLPEIIAPFASAAITKIYRHEKIEKVTEGNFLPYRVRFFDIDGNQHVNNAIYFNWLLDVLGYDFLTTHQPKKILVKFDKEVEYGQEVESHYEIVEQENQLKTRHEIRIDGQTYCEANIDWTN, MGSDKIHHHHHHMGKKTTIAIAHSDADLGKPAEYTRDQLDLVKAMIRQIADQTMGGMGNIVHKGDKVLIKINTVIPVPANAGFTTDPRMLEALIELVQEQNPGRIQIGERCAMGADTMEAMRVCGIVDVAERTGVELCPFEHAEFDMYKIDRPISFNEFPVPRPVRDADCYIGLPKMKVHVHTTFTGAMKLQFGNLPNYDWMVRCHRDDIYQKIVNLTRAANPKWFVMDSLYACQGNGPFSPYSEDLIKDFNTICGGPDPVAVDTVCEALMDWDYPGTNVPSTVLGAAEGLGTNRMNEIELAGAPLDKVKRRFKRQNTILQGQYPNVNLVMGSTCEAGCKAIVRIQLDQLQADGTLERLEKPITIFTGLQFEEHINKVEGDVLIVGDCAKGMLEKFPDARYWGDCEEYPNCTPIWANRPDVGIANYVRQLTAVREGNAR, MGSDKIHHHHHHMGKLVLAAKVSHVPSLMLSETSDSPLRQARAGAVAALRELGRRAKEREVTTFVVFDTHWLSNFGYHINANAQHRGSFTSHEAPHMIQDLRYDLPGDPALAQAIAAEAQSHGLKVLAHQVPTLGLEYGTIVPMHYLNSDGWAKIVSIASPLFTSIEESRALGEATRRAIDASDERVAILASGSLSHRLWPNKDLGPDAWTTIASEFNRQVDLRVLQLWQERRYREFTAMLPDYAVKCNGEGGMADTVMLFAALGWDDYTGEAEPLCDYFPSSGSGQVNVEFHVS, MGSDKIHHHHHHMGLLNLLSTNRNENLFLPAHGRGNSLPKNIKTLLRLRPGIWDLPELFEIGGPLISEGAIAESQKSSAYEVGVDRCWYGVNGATGLLQSSLLALAHPGQAVLMPRNIHKSCIQACLFGGLTPLLFDVPYLTDRGHASVMDRKWLQRVLKKAKEYEDDIAAVVLVNPTYQGYSADMESLIKEIHSHSLPVLVDEAHGAYLISQIRPDLPKSAISFGADLVVHSLHKSASGLVQSAVLWSQGDKVDPFKIERAIELLQTSSPSSLLLASCESSIKELLESKGIKKLRLCIEEAEMLKDFLIKNEVPLLKNSDPLKIILHTSKFGLSGIEVDKSFIRKRMIGELAEPGTLTFCLGLSSHKRLGKRFVRIWNEILKACGKQKPCFFKRPPFGIVSKPYKSYSDSWGSNFEKVNLKDAIGRISVEMVCPYPPGIPLLIPGEILDEARVDWLIEQKSFWPEQISDFVRVIS, MGSDKIHHHHHHMGLLYRETYEVPFYESDTNHYMKLPQLLALALQISAKQSLKLGIGDDIVFKRYGLVWVVTDYIIDIERLPKHAEKIVIETEAKAHNKLLCYRYFYIYGEDGQKIITISSAFVLMDFKTRKIHPVLDDITSIYQSQRIKKVIRGPKYHPIGDSKVKQYHVRYFDLDMNGHVNNSKYLEWMYDVLDLDFLSSHIPKKIDLKYIKEIQYGTDIKSHWYQDGLVTRHDIIGGDAIHAQARIEWQEKKED, MGSDKIHHHHHHMGLRILQVMAGAEQGGAELFFERLCIALHRAGLHQHVVMREASVRLARMREAGLRPVLLPFGGRFDFKTGRALRQEIARFQPAVVLSWMNRATRFVRPGNHVFCARLGGYYDLKYYRGCDWLVCNTEDIRDYVIKQGFPAERAVHLPNFVPQQHMAPTARKLLYTPENAPLVLALGRLHENKAFDVLLRALALVPDVYLWLAGEGPLRASLETLAQDLGVKPRVRFLGWRDDTPALYAAADLVVFPSRHEPLGNVVLEAWAQRTPMVSTRTDGPARLITSGHNGLLVPIDDHRAMAGAIRQAFGEPGLGEAMARAGWDSYLAAYTEEKVVASYRSFFETIVAERSGAVDRG
